167 variants from the RNAGym collection of RNA variant scans (doi:10.1093/nar/gkz1192) can be followed below.

First the molecules themselves.
B1: CPEB3 Ribozyme (parent)
chain: UAACAGGGGGCCACAGCAGAAGCGUUCACGUCGCAGCCCCUGUCAGAUUCUGGUGAAUCUGCGAAUUCUGCUGUAUAUCUC

The series covers variants of B1. Kind of series: self-cleavage, relative activity (ratio to wild type); higher = more cleavage; in vitro, sequencing. The essentials: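 Relative activity compares each variant's cleaved/total read fraction with that of the unmutated ribozyme. To get these fractions, barcoded CPEB3 ribozyme libraries from rounds of error-prone PCR were transcribed with T7 RNA polymerase for 5 hours at 37°C and then given 15 min of DNase I treatment before EDTA was added. The RNAs were reverse transcribed with template switching and sequenced on Illumina, and DNA sequencing linked barcodes to variants. A minimum of 5 reads applied, and three batches were averaged.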
In the case of G10A C29U, the self-cleavage was 0.13.

For G9U U76C, the self-cleavage came out at 0.13.

For G9U U76A, the self-cleavage was determined as 0.39.

In the case of G10A C40U, the self-cleavage was found to be 0.15.

G10A C40A: the self-cleavage is 0.19.

Regarding G10A G30U, the self-cleavage came out at 0.17.

In the case of G9U U60A, the self-cleavage came out at 0.15.

Take G9U U60C: the self-cleavage is 0.06.

Take G9U U80C: the self-cleavage worked out at 0.24.

In the case of G9U U80A, the self-cleavage is 0.26.

Take G10A C81G: the self-cleavage is 0.3.

As to G10A U54C, the self-cleavage worked out at 0.19.

G10A U54G: the self-cleavage came out at 0.16.

Consider G10A U54A, for which the self-cleavage stood at 0.35.

In the case of G9U U78C, the self-cleavage came out at 0.2.

Take G9U U78A: the self-cleavage worked out at 0.27.

On to G10A U78G, for which the self-cleavage amounted to 0.33.

As for G10A U78C, the self-cleavage was determined as 0.24.

Consider G10A U51A, for which the self-cleavage turned out to be 0.33.

For G10A U51C, the self-cleavage was 0.24.

With G10A A45U, the self-cleavage worked out at 0.19.

On to G10A A45G, for which the self-cleavage came out at 0.22.

Turning to G10A U25G, the self-cleavage is 0.14.

For the variant G10A U25A, the self-cleavage turned out to be 0.26.

For the variant G10A U25C, the self-cleavage is 0.23.

Turning to G10A C17A, the self-cleavage came out at 0.23.

Consider G10A C17U, for which the self-cleavage is 0.06.

For G10A C17G, the self-cleavage turned out to be 0.3.

Consider G10A A35U, for which the self-cleavage was determined as 0.11.

Turning to G10A A35G, the self-cleavage came to 0.55.

On to G10A A65G, for which the self-cleavage is 0.12.

Regarding G10A A65C, the self-cleavage worked out at 0.09.

For the variant G10A A65U, the self-cleavage turned out to be 0.14.

Consider G10A C71G, for which the self-cleavage came out at 0.12.

Take G10A C71U: the self-cleavage worked out at 0.08.

As for G10A C71A, the self-cleavage worked out at 0.11.

On to G9U U48C, for which the self-cleavage is 0.29.

Turning to G10A G36A, the self-cleavage stood at 0.26.

For the variant G10A U60C, the self-cleavage came to 0.2.

For the variant G10A U60A, the self-cleavage came out at 0.14.

Turning to G10A U60G, the self-cleavage is 0.06.

Regarding G10A G42C, the self-cleavage was 0.16.

Consider G10A G42U, for which the self-cleavage was determined as 0.38.

G10A G53C: the self-cleavage is 0.33.

Turning to G10A G53A, the self-cleavage was 0.29.

As for G10A U48C, the self-cleavage came out at 0.2.

With G10A C27G, the self-cleavage came to 0.16.

For G10A A28G, the self-cleavage is 0.21.

As to G10A A28C, the self-cleavage stood at 0.1.

G10A A28U: the self-cleavage turned out to be 0.17.

Regarding G10A C34U, the self-cleavage was 0.05.

Consider G10A U72G, for which the self-cleavage was 0.24.

Take G10A U72C: the self-cleavage turned out to be 0.39.

As to G10A U72A, the self-cleavage stood at 0.22.

Consider G9U U72C, for which the self-cleavage is 0.26.

In the case of G9U U72A, the self-cleavage was 0.09.

As for G10A A15U, the self-cleavage was 0.2.

As to G10A A15G, the self-cleavage worked out at 0.24.

For G9U U31G, the self-cleavage stood at 0.06.

As to G9U U31C, the self-cleavage is 0.13.

As to G10A A56U, the self-cleavage was 0.12.

Turning to G10A A56G, the self-cleavage is 0.15.

In the case of G10A C44U, the self-cleavage amounted to 0.21.

For the variant G10A U67C, the self-cleavage was found to be 0.25.

As to G9U U43A, the self-cleavage turned out to be 0.52.

On to G9U U43C, for which the self-cleavage came to 0.15.

Regarding G9U U43G, the self-cleavage was found to be 0.12.

G10A A47G: the self-cleavage amounted to 0.12.

Consider G9U U26C, for which the self-cleavage worked out at 0.19.

As for G9U U26G, the self-cleavage amounted to 0.09.

In the case of G10A A13C, the self-cleavage turned out to be 0.28.

Turning to G10A A13G, the self-cleavage is 0.26.

Take G10A A13U: the self-cleavage was 0.28.

G9U G36C: the self-cleavage was 0.07.

Take G9U G36A: the self-cleavage came out at 0.15.

On to G10A U31C, for which the self-cleavage is 0.2.

Take G10A U49G: the self-cleavage turned out to be 0.18.

For the variant G10A U49C, the self-cleavage worked out at 0.19.

Regarding G10A U76A, the self-cleavage turned out to be 0.23.

Consider G10A U76C, for which the self-cleavage was 0.33.

On to G10A C39A, for which the self-cleavage is 0.37.

Consider G9U U69C, for which the self-cleavage came to 0.11.

Take G9U U69G: the self-cleavage was 0.18.

G9U U69A: the self-cleavage is 0.11.

For the variant G10A U74C, the self-cleavage is 0.25.

Turning to G10A U74G, the self-cleavage is 0.14.

On to G10A U74A, for which the self-cleavage was determined as 0.25.

G10A U26A: the self-cleavage amounted to 0.07.

As to G10A U26C, the self-cleavage is 0.22.

Turning to G10A U26G, the self-cleavage came to 0.05.

G10A U58C: the self-cleavage stood at 0.18.

As for G10A U58A, the self-cleavage turned out to be 0.24.

In the case of G9U C40U, the self-cleavage was 0.19.

G9U C40A: the self-cleavage is 0.14.

As to G10A G33A, the self-cleavage came out at 0.19.

For G10A C59A, the self-cleavage came out at 0.06.

Take G10A A21G: the self-cleavage worked out at 0.24.

Turning to G10A A21U, the self-cleavage turned out to be 0.13.

For the variant G10A A21C, the self-cleavage turned out to be 0.15.

For G10A G46U, the self-cleavage was found to be 0.17.

G9U C59U: the self-cleavage was 0.06.

Turning to G10A C38U, the self-cleavage was 0.08.

On to G10A U43G, for which the self-cleavage amounted to 0.19.

For the variant G10A U43C, the self-cleavage was determined as 0.06.

In the case of G10A U43A, the self-cleavage amounted to 0.28.

In the case of G9U G52U, the self-cleavage is 0.18.

G10A U41A: the self-cleavage was determined as 0.29.

As for G10A U41C, the self-cleavage worked out at 0.31.

On to G10A U41G, for which the self-cleavage turned out to be 0.38.

As for G10A U80C, the self-cleavage was determined as 0.25.

As to G10A U80A, the self-cleavage turned out to be 0.06.

In the case of G10A U80G, the self-cleavage came out at 0.25.

G10A A20U: the self-cleavage was found to be 0.23.

In the case of G10A A20G, the self-cleavage was 0.3.

As for G10A A20C, the self-cleavage is 0.22.

In the case of G10A G55U, the self-cleavage was determined as 0.07.

In the case of G10A G55A, the self-cleavage was determined as 0.36.

For the variant G9U G63A, the self-cleavage was 0.08.

Take G10A C32A: the self-cleavage worked out at 0.06.

For the variant G10A C32U, the self-cleavage amounted to 0.19.

Take G10A A57G: the self-cleavage stood at 0.29.

As to G10A A57U, the self-cleavage is 0.05.

As for G9U U25C, the self-cleavage amounted to 0.14.

As to G10A G24A, the self-cleavage is 0.16.

Take G9U G53U: the self-cleavage stood at 0.36.

Take G10C A18U: the self-cleavage turned out to be 0.12.

Turning to G10C A18G, the self-cleavage turned out to be 0.13.

Consider G10A A64G, for which the self-cleavage was determined as 0.24.

As for G10A A64C, the self-cleavage was 0.18.

For the variant G10A A64U, the self-cleavage worked out at 0.15.

As to G9U U58C, the self-cleavage worked out at 0.14.

With G9U C81U, the self-cleavage was found to be 0.27.

Consider G9U G70A, for which the self-cleavage stood at 0.1.

G10A A75G: the self-cleavage worked out at 0.19.

For G9U U41C, the self-cleavage worked out at 0.32.

For G9U U41A, the self-cleavage came out at 0.15.

G9U G55A: the self-cleavage is 0.41.

As for G9U G24C, the self-cleavage stood at 0.11.

Regarding G9U C62U, the self-cleavage amounted to 0.13.

With G10A G61C, the self-cleavage came out at 0.09.

On to G10A C23A, for which the self-cleavage was 0.06.

With G9U U54C, the self-cleavage was found to be 0.1.

On to G9U U54A, for which the self-cleavage stood at 0.08.

Consider G9U U51A, for which the self-cleavage was 0.14.

With G9U U51C, the self-cleavage worked out at 0.17.

As for G9U G19U, the self-cleavage came to 0.07.

For G10C A15U, the self-cleavage was determined as 0.08.

Regarding G10C A15G, the self-cleavage stood at 0.08.

On to G9U U66G, for which the self-cleavage was 0.11.

For G9U U66C, the self-cleavage worked out at 0.15.

Regarding G9U U49A, the self-cleavage stood at 0.41.

Turning to G9U U49C, the self-cleavage came out at 0.11.

In the case of G9U U67A, the self-cleavage worked out at 0.11.

For G9U U67C, the self-cleavage came out at 0.24.

For G10A C11U, the self-cleavage turned out to be 0.5.

For G10A U69C, the self-cleavage worked out at 0.2.

Consider G10A U69G, for which the self-cleavage turned out to be 0.36.

With G10A U69A, the self-cleavage stood at 0.11.

For G10A U66C, the self-cleavage came to 0.2.

G10A A77G: the self-cleavage came to 0.08.

As to G10A A77U, the self-cleavage came out at 0.04.

As to G10A A18U, the self-cleavage came out at 0.15.

G10A A18C: the self-cleavage stood at 0.35.

Regarding G10A A18G, the self-cleavage was determined as 0.23.

As to G9U U74C, the self-cleavage was 0.32.

Take G10C: the self-cleavage was determined as 0.25.

As for G10A, the self-cleavage amounted to 0.26.
